Test results from patent US20090022669A1, “COMPOSITIONS FOR PROTEIN DELIVERY VIA THE PULMONARY ROUTE” (VAPOTRONICS, INC., priority 2001, published 2009).

Experiments:
[1] = Molecular assays (HPLC, mass spectrometry, isoelectric focusing, immunoassay) of recovered aerosol versus initial formulation; type: physicochemical
Excerpt: During testing, it was useful to ensure that the composition of the aerosol emanating from the device was the same in all discernable aspects as the formulation filled into the device.

[2] = tested on: receptors introduced to the cells specific to the test protein; assay: Transgenic cell bioassay of recovered aerosol versus formulation before aerosolization; type: cell-based; settings: hGH 2 mg/mL, 6% w/w PEG 3000, 0.1% w/v TWEEN 20; thermal inkjet, aerosol condensed and recovered; FIG. 1
Protocol: Proteins were tested with a transgenic cell bioassays with receptors introduced to the cells specific to the test protein. These bioassays were appropriate for indicating the functional effectiveness of the protein. Molecular assays were performed to indicate the primary or tertiary structure of the molecule. Assays used included size exclusion high performance liquid chromatography, reverse phase high performance liquid chromatography, mass spectrometry, isoelectric focusing and immunoassay.
Each protein was formulated at a concentration that was calculated to be of clinical significance such that the plume of aerosol contained the required amount of therapeutic. Humectant was added to the protein formulation which was filled into an inkjet cartridge and fired from the cartridge.
Resistor surfaces and nozzles were inspected by Scanning Electron Microscopy to establish the cleanliness of the surfaces and subsequently the effectiveness of the humectant and surfactant. When humectant and surfactant concentrations were suitable, the aerosol from the device was collected, analyzed, and compared with the solution before aerosolization.
Human growth hormone (hGH) was formulated at 2 mg/mL with 6% w/w PEG 3000 and 0.1% w/v TWEEN® 20. The formulation was unbuffered and no additional salts were added to the formulation. […]

[3] = Droplet size of the thermal inkjet aerosol measured by Malvern laser; type: physicochemical; settings: hGH 2 mg/mL, 6% w/w PEG 3000, 0.1% w/v TWEEN 20, unbuffered

## Insulin
[1]; insulin 10 mg/mL, 6% w/v PEG 8000, 0.1% w/v TWEEN 80, thermal inkjet, FIG. 2
  reverse-phase HPLC comparison (retention time, peak shape) before, after recovered and after repeated aerosolization: no measurable differences

## Human growth hormone
[2]
  bioassay comparison of formulation before and after aerosolization: no measurable difference
[1]; hGH 2 mg/mL, 6% w/w PEG 3000, 0.1% w/v TWEEN 20, thermal inkjet, aerosol condensed and recovered
  HPLC comparison of formulation before and after aerosolization: no measurable difference
[3]
  average droplet size of formulation aerosol: 8 μm

## CN1CCCC1c1cccnc1 (centres unmarked) [Nicotine, reference compound]
[1]; nicotine up to 50% w/w in water with 0.1% w/v TWEEN 20
  comparison of solution during or after dosage (aerosolization): no measurable difference
